The target in experiment [1] is T1, Staufen/YFP fusion protein (human, UniProt O95793 82-577).
T1 construct: BRET acceptor, expressed in live 293T cells; also called pCMV-Staufen/YFP; not shown: YFP of pCMV-GFP-Topaz (red-shifted GFP variant of Aequorea victoria GFP); its substitutions and the junction are not pri
T1 sequence: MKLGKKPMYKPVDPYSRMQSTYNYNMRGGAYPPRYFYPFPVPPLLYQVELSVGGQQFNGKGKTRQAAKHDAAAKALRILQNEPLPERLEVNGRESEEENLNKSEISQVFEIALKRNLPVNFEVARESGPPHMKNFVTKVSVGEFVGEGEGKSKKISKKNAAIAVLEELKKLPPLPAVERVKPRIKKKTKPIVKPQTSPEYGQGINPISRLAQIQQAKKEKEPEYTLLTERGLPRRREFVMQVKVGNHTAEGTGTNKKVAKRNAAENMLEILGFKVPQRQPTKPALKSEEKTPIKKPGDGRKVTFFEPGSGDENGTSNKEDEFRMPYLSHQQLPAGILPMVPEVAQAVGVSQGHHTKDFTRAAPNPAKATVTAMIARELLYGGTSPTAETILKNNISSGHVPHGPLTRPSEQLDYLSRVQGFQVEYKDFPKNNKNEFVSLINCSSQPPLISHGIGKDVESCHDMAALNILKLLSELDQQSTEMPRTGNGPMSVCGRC
The experiment is described as follows: BRET in live 293T cells.

Experiment [2] deals with HIV-1 CA (processed form of pr55Gag, CAp24/p25) (HIV-1 (pNL4-3), UniProt P12493 133-363). Nature of the experiment: co-immunoprecipitation with anti-HA.
Experiment [3] has as its target T2, HIV-1 pr55Gag (Gag precursor expressed from pNL4-3 proviruses) (HIV-1 (pNL4-3), UniProt P12493 2-500).
T2 construct: In lysates of transfected 293T cells; The anti-CA antibody also pulls down pr41Gag and CAp24/p25
Nature of the experiment: co-immunoprecipitation with anti-CA, Western with anti-HA.

Substitutions are numbered along the chain they refer to. In names and notes the source's numbering stands.

B1: p6/Rluc (other)
chain: LQSRPEPTAPPEESFRSGVETTTPPQKQEPIDKELYPLTSLRSLFGNDPSSQ
notes: domain: p6; not shown: Renilla reniformis luciferase (Rluc) of pRluc-N1(h)
On to B1, for which the binding result in experiment [1] is on record as “no binding”.

B2: p2-p1/Rluc (other)
chain: AEAMSQVTNSATIMMQRGNFRNQRKIVKCFNCGKEGHTARNCRAPRKKGCWKCGKEGHQMKDCTERQANFLGKIWPSYKGRPGNF
notes: domain: p2-p1; not shown: Renilla reniformis luciferase (Rluc) of pRluc-N1(h)
In the case of B2, the binding result in experiment [1] was “binds”.

B3: Staufen-HA (wild-type human Staufen, short isoform, HA-tagged) (other)
chain: T1 sequence
notes: Expressed in 293T cells from the pNL4-3/Staufen-HA chimeric provirus (in the nef reading frame) or from a Staufen-HA expressor (pcDNA3-RSV-hStau-HA); Runs as a 60 kDa band; also called hStau/HA; HA-hStau
For B3, in experiment [2], the binding result is “no binding”.

B4: Staufen F135A-HA (full-length Staufen with a point mutation in dsRBD3) (other)
chain: T1 sequence with F135A
notes: Expressed from the pNL4-3/StaufenF135A-HA chimeric provirus
As to B4, the binding result in experiment [3] is listed as “no binding”.

B5: NC/Rluc (other)
chain: MQRGNFRNQRKIVKCFNCGKEGHTARNCRAPRKKGCWKCGKEGHQMKDCTERQAN
notes: domain: NC; not shown: Renilla reniformis luciferase (Rluc) of pRluc-N1(h)
For B5, in experiment [1], the binding result is reported as “binds”.

B6: MA/Rluc (other)
chain: MGARASVLSGGELDRWEKIRLRPGGKKKYKLKHIVWASRELERFAVNPGLLETSEGCRQILGQLQPSLQTGSEELRSLYNTVATLYCVHQRIEIKDTKEALDKIEEEQNKSKKKAQQAAADTGHSNQVSQNY
notes: domain: MA; not shown: Renilla reniformis luciferase (Rluc) of pRluc-N1(h)
For the molecule B6, the binding result in experiment [1] was “no binding”.

(Values after patent publication US20040241845A1 (UNIVERSIT DE MONTR AL, published 2004).)
